According to doi:10.1101/2024.01.24.577129 (2024):

How the values were obtained:
Test in all cases: SPR
[1] = target: T1, K^d MHC class I monomer presenting VYLKTNVFL (mouse | )
T1 chain 1: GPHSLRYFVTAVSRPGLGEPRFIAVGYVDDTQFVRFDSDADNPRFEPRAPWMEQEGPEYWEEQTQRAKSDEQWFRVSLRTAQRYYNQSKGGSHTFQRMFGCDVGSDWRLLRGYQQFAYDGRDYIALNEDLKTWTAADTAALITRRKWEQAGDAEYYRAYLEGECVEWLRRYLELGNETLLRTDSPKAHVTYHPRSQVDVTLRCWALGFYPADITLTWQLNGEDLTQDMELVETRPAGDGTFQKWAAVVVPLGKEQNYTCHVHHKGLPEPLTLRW
T1 chain 2: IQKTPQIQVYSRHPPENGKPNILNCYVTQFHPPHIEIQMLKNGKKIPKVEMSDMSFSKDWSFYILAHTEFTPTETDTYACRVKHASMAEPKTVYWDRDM
T1 chain 3: VYLKTNVFL

[2] = target: T2, K^b MHC class I monomer presenting SIINFEKL (mouse | )
T2 chain 1: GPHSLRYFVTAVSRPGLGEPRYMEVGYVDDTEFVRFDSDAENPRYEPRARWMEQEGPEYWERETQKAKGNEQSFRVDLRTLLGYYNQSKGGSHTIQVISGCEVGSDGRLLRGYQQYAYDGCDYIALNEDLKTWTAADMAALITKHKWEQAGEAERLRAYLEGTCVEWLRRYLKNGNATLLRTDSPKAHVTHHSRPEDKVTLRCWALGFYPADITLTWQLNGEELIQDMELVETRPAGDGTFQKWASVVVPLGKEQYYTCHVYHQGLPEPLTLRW
T2 chain 2: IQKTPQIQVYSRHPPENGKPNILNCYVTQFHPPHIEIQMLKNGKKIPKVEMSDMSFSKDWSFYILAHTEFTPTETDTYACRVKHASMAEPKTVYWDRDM
T2 chain 3: SIINFEKL

[3] = target: D^d MHC class I monomer presenting […] (mouse | )

B1: 34-1-2S antibody (antibody, V domains shown)
VH: EVQLQQSGAEFVRPGASVKLSCTASGFNLKDDYMFWVKQRPEQGLEWIGWIAPDNGDTEYASKFQGKATITADTSSNTAYVQLSSLTSEDTAVYYCTTWGYYSYVNYWGQGTTLTVSS
VL: DIQMTQSPSSLSASLGERVSLTCRASQDIGSNLNWLQQEPDGTIKRLIYATYSLDSGVPKRFSGSRSGSDYSLTISSLESEDFVDYYCLQYASSPYTFGGGTKLEIK
Kd [1]: 9.1 nM | Kd [2]: 2490 nM | Kd [3]: 30 nM
